Assays:
[1] = Specific surface area by inverse gas chromatography-surface energy analyzer; type: physicochemical
Source text: The specific surface areas of the bulk drug semaglutide, excipient leucine and powder formulation were respectively detected by an inverse gas chromatography-surface energy analyzer.

[2] = injectable and oral formulations; cited from earlier work

Molecule | Specific surface area [1] | bioavailability [2]
CC(C)C[C@H](N)C(=O)O [Excipient leucine, leucine] | 0.506 m^2/g | –
Semaglutide [Bulk drug semaglutide] | 1.816 m^2/g | about 1%
